Assay results taken from IntAct's records for PubMed 18571423.

Target: rbbp7_human RBBP7 (UniProt Q16576)
Sequence (Q16576 whole entry): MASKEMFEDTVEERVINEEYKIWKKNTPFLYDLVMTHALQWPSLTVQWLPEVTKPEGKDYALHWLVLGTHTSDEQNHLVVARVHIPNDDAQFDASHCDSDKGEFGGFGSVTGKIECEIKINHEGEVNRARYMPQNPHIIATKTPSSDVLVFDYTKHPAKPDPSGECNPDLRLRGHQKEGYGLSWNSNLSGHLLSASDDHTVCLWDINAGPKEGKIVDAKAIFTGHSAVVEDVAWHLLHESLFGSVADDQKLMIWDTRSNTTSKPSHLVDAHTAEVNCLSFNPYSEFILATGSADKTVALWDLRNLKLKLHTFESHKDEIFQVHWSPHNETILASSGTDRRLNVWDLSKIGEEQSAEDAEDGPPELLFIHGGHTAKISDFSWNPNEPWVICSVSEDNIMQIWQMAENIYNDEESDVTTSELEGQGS

Question: Which “effect of a mutation on the interaction” value does the source give for “Histone H4 (Homo sapiens) (from UniProt P62805) I35T;R36S;L38D” here?
Answer: The value was “disrupting interaction”.

Question: How did the “effect of a mutation on the interaction” value turn out when “Histone H4 (Homo sapiens) (from UniProt P62805) L38D;R40V;R41N” was run?
Answer: Its value is “disrupting interaction”.

Question: With “Histone H4 (Homo sapiens) (from UniProt P62805) R40V;R41N” as the substance, how does the “effect of a mutation on the interaction” value read?
Answer: The value was “disrupting interaction”.
